These results are taken from US20230257458A1.

One test concerns the target IL-11 protein (UniProt P20809). The test is described as follows: ELISA, purchased IL-11 antibody (Abcam, ab130083) on IL-11, positive control.
The next test has as its target IL-11-Fc protein (UniProt P20809). In words: competition ELISA: IL-11R-His coated, IL-11-Fc co-incubated with a concentration gradient of the antibody, detection with HRP goat anti-IgG-Fc; blocked partner IL-11R-His. (ELISA stands for enzyme-linked immunosorbent assay.)

IL-11 protein, sequence (P20809 22-199 limits assumed): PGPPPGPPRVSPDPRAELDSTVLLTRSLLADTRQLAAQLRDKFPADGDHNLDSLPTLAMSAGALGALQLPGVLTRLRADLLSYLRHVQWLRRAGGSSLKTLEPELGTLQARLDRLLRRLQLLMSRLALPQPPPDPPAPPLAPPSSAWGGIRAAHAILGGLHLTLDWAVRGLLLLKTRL
IL-11-Fc protein, sequence (P20809 22-199 limits assumed): as above

For 6D9A1 (Abcam, ab130083) (antibody), the OD(450 nm) value in the test with IL-11 protein was determined as 3.62. Also, the IC50 (read off the curve) in the test with IL-11-Fc protein was found to be 1 µg/mL.
